# Measurements as given in patent US20240425588A1 (APEXIMMUNE THERAPEUTICS, published 2024).
# T1: human TIGIT expressed on the cell surface of Jurkat cells (human, UniProt Q495A1 22-244)
# T1 construct: also called Jurkat-hTIGIT; cell surface TIGIT
# T1 sequence: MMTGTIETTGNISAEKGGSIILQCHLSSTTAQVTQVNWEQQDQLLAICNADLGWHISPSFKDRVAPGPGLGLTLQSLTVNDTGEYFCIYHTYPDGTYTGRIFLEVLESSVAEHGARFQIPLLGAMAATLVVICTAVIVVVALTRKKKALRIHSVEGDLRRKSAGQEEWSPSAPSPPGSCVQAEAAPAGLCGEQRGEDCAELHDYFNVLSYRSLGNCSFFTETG
# Biological target: T1, human TIGIT expressed on the cell …
# Assay: flow cytometry on Jurkat-hTIGIT cells
# Method: Supernatants from ELISA-positive clones or purified antibodies were further tested for their ability to bind to human TIGIT or rhesus TIGIT expressed on the cell surface of Jurkat cells (Jurkat-hTIGIT or Jurkat-rhesTIGIT) by flow cytometry. Jurkat-hTIGIT or Jurkat-rhesTIGIT cells were harvested and 1×10⁵ cells per well plated in 96-well U-bottom plates and the supernatant removed. 50 μl of hybridoma supernatant or purified antibody at the specified dilution or concentration was added to each well and incubated at 4° C. for 30 minutes. Assay plates were washed 2 times with PBS and antibody binding detected using a PE-labeled goat anti-mouse antibody (Biolegend) at 1:400 dilution in PBS for 30 minutes at 4° C. Plates were washed 2 times and analyzed on a BD LSRFortessa X-20 flow cytometer (Becton Dickinson).
row,binding result,Binder
1,binds,"45.32A8.G6 (antibody, V domains shown, Mouse hybridoma antibody, tested as supernatant or protein G purified) VH: QVQLKESGPGLVAPSHSLSITCTVSGFSLTNYNINWIRQPPGKGLEWLGIIWTGGGTNYNSAFMSTLSINKDNSKSQVFLKMNRMQTDDTTIYYCVRETYFNNYGFYFDYWGQSTTLTVSS VL: EIVLTQSPTTMAASPGEKITITCSASSSISSNYLHWYQQKPGFSPKLLIYRTSNLASGVPARFSGSGSGTSYSLTIGTMEAEDVATYYCQQGSSIPRTFGGGTKLEIK"
2,binds,"45.50C2.A6 (antibody, V domains shown, Mouse hybridoma antibody, tested as supernatant or protein G purified) VH: QVQLKESGPGLVAPSQSLSITCTVSGFSLTNYNINWIRQPPGKGLEWLGVIWTGGGTNYNSAFMSRLSISKDNSKSQVFLKMNRLQTDDTAIYYCVREAYFSNYGFYFDYWGQGTTLTVSS VL: EIVLTQSPTTMAASPGEKITITCSASSSISSNYLHWYQQKPGFSPKLLIYRTSNLASGVPARFSGSGSGTSYSLTIGTMEAEDVATYYCQQGSSIPRTFGGGTKLEIK"
3,binds,"hu32B10 (45.32B10.A4) (antibody, V domains shown, Humanized antibody; also called humanized 45.32B10.A4) VH: EVQLLESGGGLVQPGGSLRLSCAASGFTFSNYVMSWVRQAPGKGLEWVSTITSGGTYTYYPDSVKGRFTISRDNSKNTLYLQMNSLRAEDTAVYYCTRWLLSLYAMDYWGQGTTVTVSS VL: DIQMTQSPSSLSASVGDRVTITCRASQDISNFLNWYQQKPGKAVKLLLYYTSRLHSGVPSRFSGSGSGTDYTLTISSLQPEDFATYFCQQGKTYPYTFGGGTKVEIK"
4,binds,"45.3D7.F7 (antibody, V domains shown, Mouse hybridoma antibody, tested as supernatant or protein G purified) VH: QVQLQQSGPELVKPGASVKISCKASGYGFSGYWMNWVKQGPGKGLEWIGRIFPGDGDTDYNGKLKDKATLTAYKSSSTAYLQLSSLTSEDSAVYFCARWLGGFTSWGQGTLVTVSA VL: QIVLSQSPAILSASPGEKVTMTCRASASVSYMHWYQQKPGSSPKPWIYATSNLASGVPARFSGSGSGTSYSLTISRVEAEDAATYYCQQWSSDPPTFGAGTKLELK"
5,binds,"45.75D4.D3.D9 (antibody, V domains shown, Mouse hybridoma antibody, tested as supernatant or protein G purified) VH: EVQLQQSGPELVKPGASMKMSCKASGYKFTSYVMHWVKQKPGQGLEWIGYIDPYNDGSKYNEKFKGKATLTSDKSSSIAYMELSSLTSEDSAVFYCARGGSRGWYFDVWGAGTTVTVSS VL: DIQMTQSPASLSASVGETVTFTCRTNENIYSYLTWYQQKQGKSPQVLVYNAKTLAEGVPSRFSGSGSGTQFSLKINSLQPEDFGSYFCQHHFGNPLTFGAGTKLELK"
6,binds,"45.62B12.G5 (antibody, V domains shown, Mouse hybridoma antibody, tested as supernatant or protein G purified) VH: DVQLQESGPGLVKPSQSLSLTCTVTGYSITSAYDWHWIRHFPGNILEWMGYIRNSGSTNYNPLLKSRISITHDTSQNHFSLKLNSVTTEDTATYYCARGLFWYFDVWGAGTTVTVSS VL: DIQMTQSPASLSASVGETVTITCRASENIYNYLTWYQQKQGKSPQLLVYNAKTLAEGVPSRFSGSGSGTQFSLKINSLQPEDFGSYYCQHHYGNPLTFGAGTKLELK"
7,binds,"45.86C5.C3 (antibody, V domains shown, Mouse hybridoma antibody, tested as supernatant or protein G purified) VH: DVQLQESGPGLVKPSQSLSLTCTVTGYSITSGYDWHWIRHFPGNILEWMGYISDSGNTIYSPSLKSRISITHDTSKNHFFLKLNSVTSEDTATYYCARGSFWYFDVWGAGTTVTVSS VL: DIQMTQSPASLSASVGETVTITCRVSENIYSYLAWYQQKQGKSPQLLVYNTKTLAEGVPSRFSGSGSGTQFSLKINSLQPEDFGSYYCQHHYGNPLTFGAGTKLELK"
8,binds,"45.87B8.H2.H5 (antibody, V domains shown, Mouse hybridoma antibody, tested as supernatant or protein G purified) VH: DVQLQESGPGLVKPSQSLSLTCTVTGYSITSAYDWHWIRLFPGHILEWMGYISYSGNTIYNPSLKSRISITHDTSKNHFFLKLNSVTTEDTATYYCARGSFWYFDVWGAGTTVTVSS VL: DIQMTQSPASLSASVGETVTITCRVSEHIYNYLAWYQQKQGKSPQLLVYNAKTLAEGVPSRFSGSGSGTQFSLKINSLQPEDFGTYYCQHNYGNPLTFGAGTKVELK"
9,binds,"45.32B10.A4 (antibody, V domains shown, Mouse hybridoma antibody, tested as supernatant or protein G purified) VH: EVQLVESGGVLVKPGGSLKLSCAASGFTFSNYVMSWVRQTPEKRLEWVATITSGGTYTYYPDSVKGRFTISRDNAKNILYLQMSSLRSEDTALYYCTRWLLSLYAMDYWGQGTSVTVSS VL: DIQMTQTTSSLSASLGDRVTITCRASQDISNFLNWYQQKPDGTVKLLIYYTSRLHSGVPSRFSGSGSGTDYSLTISNLEQEDIATYFCQQGKTYPYTFGGGTKVEIK"
10,binds,"45.56F7.A1 (antibody, V domains shown, Mouse hybridoma antibody, tested as supernatant or protein G purified) VH: EVQLVESGGALVKPGGSLKLSCAASGFTFSNYAMSWVRQTPEKRLEWVATISSGGSYTYYPDSVKGRFTISRDNAKNTLYLQMSSLRSEDTALYYCARWLLSLYAMDYWGQGTSVTVSS VL: DFQMTQTTSSLSASLGDRVTISCRSSQDISNYLNWYQQKPDGTVKLLIYRTSRLHSGVPSRFSGSGSGTDYSLTISNLEREDIATYFCQQGKTPPYTFGGGTKLEIK"
